What was measured:
Conditions in all cases: chain copies: 2
[1] = molecular target: T1, Insulin receptor on differentiated 3T3-L1 adipocytes (UniProt P15208;P15208 P15208:28-748,P15208:753-1372); assay: cell_activity; lipolysis (glycerol release) inhibition in 3T3-L1 adipocytes; insulin 2.07 nM
Description: To identify the effect of the chemically optimized A48m (A48m combi 2 to 5) on lipolysis inhibition as insulin receptor aptamers, an amount of glycerol released in a lipolysis process was measured by using completely differentiated 3T3-L1 adipocytes.
Particularly, for serum deficiency, the completely differentiated 3T3-L1 adipocytes were treated with DMEM with no FBS for 3 hours and treated with a Krebs-Ringer HEPES buffer solution for 1 hour to induce lipolysis caused by deficiency of glucose. The adipocytes were treated respectively with insulin or the A48m combi 3 aptamer in concentrations of 0.93 nM, 2.59 nM, 7.26 nM, 20.34 nM, 56.94 nM, 159.44 nM, 446.43 nM, 1250 nM, and 3500 nM for 4 hours, and then a buffer used to treat the cells was collected. 20 μl of the collected buffer was added to a 96-well plate and 200 μl of a free glycerol reagent (Sigma F6428) was added thereto, followed by reaction at room temperature for 30 minutes. Then, concentration-dependent color development of glycerol released from the cells was measured by measuring absorbance at 540 nm.

[2] = molecular target: T1, Insulin receptor on differentiated …; assay: cell_activity; glucose uptake in differentiated 3T3-L1 adipocytes; insulin 9.6 nM
Description: For serum deficiency, the completely differentiated 3T3-L1 adipocytes were treated with DMEM with no FBS for 3 hours and treated with a Krebs-Ringer HEPES buffer solution for 1 hour. Subsequently, the adipocytes were treated respectively with insulin or the A48m combi 3 aptamer in concentrations of 1.6 nM, 8 nM, 40 nM, 200 nM, and 1000 nM for a given time and then treated with 2-deoxy[14C]glucose (0.1 μCi/ml) for 10 minutes. The resultant was washed three times with PBS supplemented with 20 mM glucose and the cells were dissolved using a solution including 0.5 N NaOH and 1% SDS. An amount of 2-Deoxy-D-glucose absorbed into the cells was observed using a liquid scintillation counter.

[3] = molecular target: T2, Insulin receptor (hIR) expressed on Rat-1/hIR cells (Homo sapiens, UniProt P06213;P06213 P06213:28-758,P06213:763-1382); assay: cell_activity; IR phosphorylation, 200 nM, Rat-1/hIR; Table 5 gives 0.83
T2 sequence (P06213 28-758, chain 1 of 2): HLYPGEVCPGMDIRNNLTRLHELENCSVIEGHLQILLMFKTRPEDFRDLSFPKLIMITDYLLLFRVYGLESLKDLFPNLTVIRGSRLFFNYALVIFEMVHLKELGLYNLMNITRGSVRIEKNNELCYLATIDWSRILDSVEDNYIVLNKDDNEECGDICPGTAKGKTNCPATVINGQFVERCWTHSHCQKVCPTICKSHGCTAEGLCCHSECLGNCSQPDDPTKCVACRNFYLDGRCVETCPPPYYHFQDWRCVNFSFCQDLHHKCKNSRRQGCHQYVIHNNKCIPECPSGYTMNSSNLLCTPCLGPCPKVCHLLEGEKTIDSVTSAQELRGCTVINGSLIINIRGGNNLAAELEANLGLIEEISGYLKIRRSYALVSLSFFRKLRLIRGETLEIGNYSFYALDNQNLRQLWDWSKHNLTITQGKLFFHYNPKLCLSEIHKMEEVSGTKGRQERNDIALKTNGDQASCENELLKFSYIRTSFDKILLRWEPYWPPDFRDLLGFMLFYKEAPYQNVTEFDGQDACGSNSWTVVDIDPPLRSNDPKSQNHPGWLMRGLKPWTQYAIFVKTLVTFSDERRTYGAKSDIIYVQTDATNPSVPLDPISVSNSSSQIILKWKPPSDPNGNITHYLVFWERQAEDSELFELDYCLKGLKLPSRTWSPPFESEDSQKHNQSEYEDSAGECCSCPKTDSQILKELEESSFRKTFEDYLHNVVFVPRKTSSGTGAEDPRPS
T2 sequence (P06213 763-1382, chain 2 of 2): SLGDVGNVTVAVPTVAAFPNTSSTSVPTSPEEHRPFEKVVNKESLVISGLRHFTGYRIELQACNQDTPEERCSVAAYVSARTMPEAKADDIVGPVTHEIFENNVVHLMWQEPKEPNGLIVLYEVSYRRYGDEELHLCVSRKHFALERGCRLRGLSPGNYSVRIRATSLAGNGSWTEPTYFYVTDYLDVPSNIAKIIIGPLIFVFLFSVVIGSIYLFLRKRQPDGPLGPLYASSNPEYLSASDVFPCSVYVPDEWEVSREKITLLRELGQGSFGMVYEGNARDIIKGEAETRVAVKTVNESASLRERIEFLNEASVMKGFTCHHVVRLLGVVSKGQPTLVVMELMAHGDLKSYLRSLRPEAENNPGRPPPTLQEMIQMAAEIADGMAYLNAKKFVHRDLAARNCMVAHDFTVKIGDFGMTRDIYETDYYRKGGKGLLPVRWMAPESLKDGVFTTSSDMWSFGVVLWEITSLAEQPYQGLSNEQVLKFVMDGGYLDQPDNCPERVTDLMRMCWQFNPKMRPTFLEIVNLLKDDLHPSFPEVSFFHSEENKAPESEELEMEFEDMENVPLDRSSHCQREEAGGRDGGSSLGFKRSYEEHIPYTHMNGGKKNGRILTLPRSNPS
Description: (§1) To identify the insulin receptor phosphorylation activity of the chemical variant samples of A48m prepared in Example 2-1, an experiment was performed as follows. Particularly, Rat-1/hIR cells were seeded on a 12-well plates at a density of 10⁵ cells per well and cultured overnight in a high glucose Dulbecco's modified Eagle's medium (DMEM) supplemented with 10% fetal bovine serum (FBS). The cells untreated with the aptamer samples were incubated in the DMEM not including FBS for 3 hours, washed three times with 1×PBS, and incubated in a Krebs-Ringer HEPES buffer [25 mM HEPES (pH 7.4), 120 mM NaCl, 5 mM KCl, 1.2 mM MgSO₄, 1.3 mM CaCl₂, and 1.3 mM KH₂PO₄] for 1 hour. The aptamer samples, which were the chemical variants of A48m prepared in Example 2-1, were heated at 95° C. for 5 minutes and cooled at room temperature such that a three-dimensional structure of each aptamer was reconstructed. The aptamers were dissolved in the Krebs-Ringer HEPES buffer for preparation.
(§2) The aptamer samples were added to each well of the 12-well plate and incubated for 1 hour. After 1 hour, the plate was washed three times with 1×PBS and the cells were isolated from the plate and lysed with a lysis buffer. The cell lysates were centrifuged at 4° C. at 14,000 rpm for 15 minutes to isolate proteins. […] Intensities of bands formed on the membrane were quantified via comparison with A48m.

[4] = molecular target: T2, Insulin receptor (hIR) expressed on …; assay: cell_activity; IR phosphorylation, 200 nM, Rat-1/hIR
Description: as §1
The aptamer samples were added to each well of the 12-well plate and incubated for 1 hour. After 1 hour, the plate was washed three times with 1×PBS and the cells were isolated from the plate and lysed with a lysis buffer. The cell lysates were centrifuged at 4° C. at 14,000 rpm for 15 minutes to isolate proteins. The isolated samples were heated at 100° C. for 5 minutes with a 5× sample buffer and slowly cooled at room temperature to prepare western blot samples. The prepared samples were subjected to electrophoresis on 4%-12% SDS-PAGE for 1 hour and 30 minutes and transferred to a nitrocellulose membrane for 1 hour and 30 minutes. Then, the membrane was blocked at room temperature for 40 minutes in a blocking buffer solution (1×PBST, 3% skim milk) and incubated for 1 hour at room temperature with a primary antibody [anti-phosphor-IR (10C3), Santa Cruz Biotechnology or anti-β-actin (D6A8), Cell Signaling Technology] diluted in a blocking buffer at 1:500 or 1:1000. The membrane was washed three times with 1×PBS and incubated for 1 hour at room temperature with a secondary binding antibody diluted in the blocking buffer at 1:20000, and washed three times with 1×PBST. An ECL solution was sprayed onto the membrane, followed by incubation at room temperature for 1 minute and exposure to x-rays. Intensities of bands formed on the membrane were quantified via comparison with A48m.

[5] = molecular target: T2, Insulin receptor (hIR) expressed on …; assay: cell_activity; IR phosphorylation, 200 nM, Rat-1/hIR; Table 5 gives 0.77
Description: as §1, §2

[6] = molecular target: T2, Insulin receptor (hIR) expressed on …; assay: cell_activity; IR phosphorylation, 200 nM, Rat-1/hIR; Table 5 gives 0.9
Description: as §1, §2

[7] = molecular target: T2, Insulin receptor (hIR) expressed on …; assay: cell_activity; IR phosphorylation reference, 200 nM, Rat-1/hIR
Description: as §1, §2

[8] = molecular target: T2, Insulin receptor (hIR) expressed on …; assay: cell_activity; IR phosphorylation, 200 nM, Rat-1/hIR; Table 5 gives 0.95
Description: as §1, §2

T1 sequence (P15208 28-748, chain 1 of 2): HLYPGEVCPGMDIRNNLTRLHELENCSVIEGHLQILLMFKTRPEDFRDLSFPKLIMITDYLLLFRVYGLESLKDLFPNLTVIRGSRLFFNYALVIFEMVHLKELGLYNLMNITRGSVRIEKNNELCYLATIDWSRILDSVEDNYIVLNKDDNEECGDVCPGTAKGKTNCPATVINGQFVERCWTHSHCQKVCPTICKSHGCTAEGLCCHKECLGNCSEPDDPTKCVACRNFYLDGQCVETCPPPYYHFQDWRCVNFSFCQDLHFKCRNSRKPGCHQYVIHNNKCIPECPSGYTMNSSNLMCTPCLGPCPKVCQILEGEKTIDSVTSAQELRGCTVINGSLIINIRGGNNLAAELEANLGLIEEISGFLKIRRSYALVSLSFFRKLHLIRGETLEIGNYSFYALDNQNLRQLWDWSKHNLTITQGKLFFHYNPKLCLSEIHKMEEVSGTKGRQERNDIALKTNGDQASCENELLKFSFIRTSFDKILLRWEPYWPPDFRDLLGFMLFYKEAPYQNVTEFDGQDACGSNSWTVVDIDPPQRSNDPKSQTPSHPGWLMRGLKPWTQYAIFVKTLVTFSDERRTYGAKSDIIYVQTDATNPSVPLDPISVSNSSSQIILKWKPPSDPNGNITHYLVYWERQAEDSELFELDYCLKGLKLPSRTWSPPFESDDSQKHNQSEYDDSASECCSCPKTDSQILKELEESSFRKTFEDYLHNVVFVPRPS
T1 sequence (P15208 753-1372, chain 2 of 2): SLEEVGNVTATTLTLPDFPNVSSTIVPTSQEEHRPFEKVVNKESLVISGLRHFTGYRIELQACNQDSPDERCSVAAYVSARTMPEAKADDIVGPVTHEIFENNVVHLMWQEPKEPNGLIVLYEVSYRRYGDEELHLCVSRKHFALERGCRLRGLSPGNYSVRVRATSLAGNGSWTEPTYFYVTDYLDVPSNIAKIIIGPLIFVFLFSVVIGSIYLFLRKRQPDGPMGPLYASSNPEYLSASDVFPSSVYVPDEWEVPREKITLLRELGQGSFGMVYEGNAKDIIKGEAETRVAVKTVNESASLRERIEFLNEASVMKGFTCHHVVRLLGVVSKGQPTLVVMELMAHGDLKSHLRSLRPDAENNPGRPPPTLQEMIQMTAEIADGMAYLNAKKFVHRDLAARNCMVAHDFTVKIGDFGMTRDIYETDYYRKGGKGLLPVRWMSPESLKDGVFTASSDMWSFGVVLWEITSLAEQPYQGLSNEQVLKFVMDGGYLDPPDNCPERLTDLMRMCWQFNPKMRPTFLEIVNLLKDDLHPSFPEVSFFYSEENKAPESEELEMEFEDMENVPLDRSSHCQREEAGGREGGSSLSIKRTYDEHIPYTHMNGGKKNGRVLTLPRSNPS

B1: A48m combi 3 (ssDNA)
DNA: CCUGGTGTTTAGACGACCTATAGGTTAGG
modifications: CmeCmeUmeGGPGZPLPAmeGAmeCfGAmeCfCmePAmePAGGmePPAmeGmeGme-idT; me = 2'-OMe, f = 2'-F, P = naphthyl-dU, Z = benzyl-dU, L = C3 linker, 3' idT [2'-OMe at 1,2,3,11,13,16,18,20,24,27,28,29; 2'-F at 14,17; naphthyl-dU at 6,9,10,19,21,25,26; benzyl-dU at 8; C3 linker (left out) between 9 and 10; 3' idT (left out) after 29]
- IC50 [1]: 11 nM
- EC50 [2]: 16.5 nM

Binder: CGCCTGGTGTTCTAGACGACCTATAGGTTAGGC (ssDNA, P = naphthyl-dU; benzyl-dU at position 10) [A48m P10Z]
- activity [3]: 2.7 fold of A48m

Binder: CGCCTGGTGTTCTAGACGACCTATAGGTTAGGC (ssDNA, P = naphthyl-dU; 2'-F at position 27) [A48m G27 2'-F]
- activity [4]: 1.11 fold of A48m

Binder: CGCCTGGTGTTCTAGACGACCTATAGGTTAGGC (ssDNA, P = naphthyl-dU; C3 linker at position 18) [A48m G18 C3-linker]
- activity [4]: 1.16 fold of A48m

Binder: CGCCTGGTGTTCTAGACGACCTATAGGTTAGGC (ssDNA, P = naphthyl-dU; benzyl-dU at position 29) [A48m P29Z]
- activity [5]: 0.9 fold of A48m

Binder: CGCCTGGTGTTCTAGACGACCTATAGGTTAGGC (ssDNA, P = naphthyl-dU; 2'-OMe at position 2) [A48m G2 2'-OMe]
- activity [4]: 1.28 fold of A48m

Binder: CGCCTGGTGTTCTAGACGACCTATAGGTTAGGC (ssDNA, P = naphthyl-dU; benzyl-dU at position 13) [A48m P13Z]
- activity [6]: 1 fold of A48m

Binder: CGCCTGGTGTTCTAGACGACCTATAGGTTAGGC (ssDNA, P = naphthyl-dU; C3 linker at position 12) [A48m C12 C3-linker]
- activity [4]: 1.7 fold of A48m

Binder: CGCCTGGTGTTCTAGACGACCTATAGGTTAGGC (ssDNA, P (n) = naphthyl-dU) [A48m (A48 seq 1-19)]
- activity [7]: 1 fold of A48m

Binder: CGCCTGGTGTTCTAGACGACCTATAGGTTAGGC (ssDNA, P = naphthyl-dU; benzyl-dU at position 28) [A48m P28Z]
- activity [8]: 1.09 fold of A48m

— US20230159934, “INSULIN RECEPTOR APTAMER AND PHARMACEUTICAL COMPOSITION FOR TREATING DIABETES COMPRISING THE SAME” (APTAMER SCIENCES INC., published 2023)
